Patent US20100069462A1 (JICHI MEDICAL UNIVERSITY, published 2010)

Biological target: T1, PHB2-FLAG (human PHB2 protein with a FLAG tag fused to the carboxyl terminus) (human, UniProt O35129 1-299 (mouse entry))
T1 construct: Expressed in HeLa cells; immunoprecipitated with an anti-FLAG antibody from purified mitochondrial fractions; also called prohibitin 2; not shown: FLAG tag at the C-terminus
Assay: immunoprecipitation and mass spectrometry on purified HeLa mitochondrial fractions (summary of Example 3)
Description: First, immunoprecipitation (IP) analysis and mass spectrometry (MASS analysis) were conducted using purified mitochondrial fractions derived from HeLa cells expressing PHB2-FLAG, which had been prepared in Example 1.
In IP analysis, an immunoprecipitation method was performed using an anti-FLAG antibody, the precipitates were subjected to 12% SDS-PAGE, protein staining was performed, and then proteins that had been co-precipitated with the PHB2-FLAG protein were detected.

T1 sequence (O35129 whole entry, the tested form may be a part): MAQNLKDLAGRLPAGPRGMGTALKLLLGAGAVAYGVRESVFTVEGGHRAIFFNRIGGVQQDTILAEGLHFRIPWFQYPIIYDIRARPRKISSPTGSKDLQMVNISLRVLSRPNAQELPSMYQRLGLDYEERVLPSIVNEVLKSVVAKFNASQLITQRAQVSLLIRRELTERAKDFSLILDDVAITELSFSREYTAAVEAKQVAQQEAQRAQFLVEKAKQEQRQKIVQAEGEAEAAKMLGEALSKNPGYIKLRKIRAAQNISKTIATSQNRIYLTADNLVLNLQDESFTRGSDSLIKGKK

B1: PHB1 protein (other, human, UniProt P35232 2-272, looked up)
chain: AAKVFESIGKFGLALAVAGGVVNSALYNVDAGHRAVIFDRFRGVQDIVVGEGTHFLIPWVQKPIIFDCRSRPRNVPVITGSKDLQNVNITLRILFRPVASQLPRIFTSIGEDYDERVLPSITTEILKSVVARFDAGELITQRELVSRQVSDDLTERAATFGLILDDVSLTHLTFGKEFTEAVEAKQVAQQEAERARFVVEKAEQQKKAAIISAEGDSKAAELIANSLATAGDGLIELRKLEAAEDIAYQLSRSRNITYLPAGQSVLLQLPQ
notes: Endogenous protein co-precipitated from HeLa mitochondrial fractions; also called prohibitin
B1: binds.
